B1: mTIM-V5 (other, not shown: small tags and cut ends)
chain: MDLYMMNCELLATCSALGYLEGGTYHKEPDCLESVKDLIRYLRHEDETRDVRQQLGAAQILQSDLLPILTQHRQDKPLFDAVIRLMVNLTQPALLCFGSVPKDSSVRHHFLQVLTYLQAYKEAFASEKAFGVLSETLYELLQLGWEDRQEEDNLLIERILLLVRNILHVPANLEQEKSIDDDASIHDRLLWAIHLSGMDDLLLFLSSSSAEQQWSLHVLEIISLMFRDQTPEQLAGVGQGRLAQERSTDVAELEVLRQREMAEKRARALQRGNRHSRFGGSYIVQGLKSIGEKDVVFHKGLHNLQNYSSDLGKQPRRVPKRRQAAQELSVHRRSVLNVRLFLRDFCSEFLENCYNPLMGAVKDHLLRERAQQHDETYYMWAMAFFMAFNRAATFRPGLVSETLSIRTFHFVEQNLTNYYEMMLTDRKEAASWARRMHLALKAYQELLATVNEMDMCPDEAVRESSRIIKNNIFYMMEYRELFLALFRKFDERYHPRSFLRDLVETTHLFLKMLERFCRSRGNLMVQNKRKKRKKKKKVQDQGVAFSQSPGELEAMWPALAEQLLQCAQDPELSVDPVVPFDAASEVPVEEQRVEAMVRIQDCLTAGQAPQALALLRSAREVWPEGNAFGSPVISPGEEMQLLKQILSTPLPRQQEPEEGDAEEEEEEEEEEELQVVQVSEKEFNFLEYLKRFASSTIVRAYVLLLRSYRQNSAHTNHCIAKMLHRLAHGLGMEALLFQLSLFCLFNRLLSDPAAAAYKELVTFAKYIIGKFFALAAVNQKAFVELLFWKNTAVVREMTQGYGSLDSGSSSHRAPLWSPEEEAQLQELYLAHKDVEGQDVVETILAHLKVVPRTRKQVIHHLVRMGLADSVKEFQKRKGTQIVLWTEDQELELQRLFEEFRDSDDVLGQIMKNITAKRSRARVVDKLLALGLVSERRQLYKKRRKKLAPSCMQNGEKSPRDPWQEDPEEEDEHLPEDESEDEESEEGLPSGQGQGSSSLSAENLGESLRQEGLSAPLLWLQSSLIRAANDREEDGCSQAIPLVPLTEENEEAMENEQFQHLLRKLGIRPPSSGQETFWRIPAKLSSTQLRRVAASLSQQENEEEREEEPEPGVPGEQGPSEEHRTEALRALLSARKRKAGLGPTEEEATGEEEWNSAPKKRQLLDSDEEEDDEGRRQAVSGTPRVHRKKRFQIEDEDD
notes: the construct was made from the coding region of AF071506; Printed once as 'mTIM-VS', read as V5; also called mTIM-VS

Tests used:
CYC (Drosophila) = CYC (Drosophila) (UniProt O61734); test: cell-based or functional assay
mPER1-HA = target: T1, mPER1-HA (mouse, UniProt O35973 1-1291); test: co-immunoprecipitation from co-transfected COS7 cells, anti-HA IP, anti-V5 blot
T1 construct: Expressed in COS7 cells; used in place of mPER3-HA in co-immunoprecipitation
Protocol: (§1) Subsequently, the beads were washed four times (400 μl binding buffer for 10 min. per wash), mixed with 5 μl of 4×sodium dodecyl sulfate (SDS) gel loading buffer, boiled, and centrifuged. The supernatant was analyzed by SDS-polyacrylamide gel electrophoresis (PAGE) and western blotted as follows. Total protein (5 μg) from COS7 cells was extracted as described above, separated by SDS-PAGE, and transferred to a nitrocellulose membrane using a semi-dry blotting apparatus. Membranes were blocked with 5% non-fat milk. Blots were incubated with either the mouse anti-HA antibody (1:10,000) or the mouse anti-V5 antibody (1:5,000) overnight at 4EC. A goat anti-mouse horseradish peroxidase secondary antibody (1:10,000) was used in combination with enhanced chemiluminescence (NEN) to detect proteins.
(§2) Following detection of epitope-tagged proteins with one antibody, the blots were stripped in stripping buffer (62.5 mM Tris-HCl (pH 6.7), 100 mM 2-mercaptoethanol, 2% SDS) at 50EC for 30 minutes. The membrane was washed extensively (20 mM Tris, pH 7.6, 137 mM NaCl, 0.05% Tween-20) then blocked again and processed for detection of the second epitope-tagged protein.

syrian hamster (sh)BMAL1 = syrian hamster (sh)BMAL1 (syrian hamster, UniProt O88529 1-626); test: cell-based or functional assay
mTIM-V5 = target: B1; test: co-immunoprecipitation from co-transfected COS7 cells, anti-HA IP, anti-V5 blot
Protocol: as §1, §2

Sequence of syrian hamster (sh)BMAL1 (O88529 whole entry): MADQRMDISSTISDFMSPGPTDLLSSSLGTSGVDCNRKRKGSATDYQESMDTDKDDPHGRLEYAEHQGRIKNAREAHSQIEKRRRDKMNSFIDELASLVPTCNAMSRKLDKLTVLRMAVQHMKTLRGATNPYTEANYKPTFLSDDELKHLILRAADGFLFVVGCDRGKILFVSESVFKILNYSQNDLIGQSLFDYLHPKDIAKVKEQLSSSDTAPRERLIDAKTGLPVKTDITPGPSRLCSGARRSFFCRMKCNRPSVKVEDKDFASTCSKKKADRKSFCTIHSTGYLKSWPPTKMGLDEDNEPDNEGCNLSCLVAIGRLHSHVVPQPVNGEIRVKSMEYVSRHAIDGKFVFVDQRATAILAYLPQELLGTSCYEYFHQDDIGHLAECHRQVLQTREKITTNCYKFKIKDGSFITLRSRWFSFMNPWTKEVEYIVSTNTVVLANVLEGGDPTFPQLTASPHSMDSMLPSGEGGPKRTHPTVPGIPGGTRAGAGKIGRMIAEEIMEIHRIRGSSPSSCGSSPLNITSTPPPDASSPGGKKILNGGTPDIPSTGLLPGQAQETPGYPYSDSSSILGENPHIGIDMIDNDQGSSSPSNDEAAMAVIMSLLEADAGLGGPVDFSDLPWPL
T1 sequence (O35973 whole entry): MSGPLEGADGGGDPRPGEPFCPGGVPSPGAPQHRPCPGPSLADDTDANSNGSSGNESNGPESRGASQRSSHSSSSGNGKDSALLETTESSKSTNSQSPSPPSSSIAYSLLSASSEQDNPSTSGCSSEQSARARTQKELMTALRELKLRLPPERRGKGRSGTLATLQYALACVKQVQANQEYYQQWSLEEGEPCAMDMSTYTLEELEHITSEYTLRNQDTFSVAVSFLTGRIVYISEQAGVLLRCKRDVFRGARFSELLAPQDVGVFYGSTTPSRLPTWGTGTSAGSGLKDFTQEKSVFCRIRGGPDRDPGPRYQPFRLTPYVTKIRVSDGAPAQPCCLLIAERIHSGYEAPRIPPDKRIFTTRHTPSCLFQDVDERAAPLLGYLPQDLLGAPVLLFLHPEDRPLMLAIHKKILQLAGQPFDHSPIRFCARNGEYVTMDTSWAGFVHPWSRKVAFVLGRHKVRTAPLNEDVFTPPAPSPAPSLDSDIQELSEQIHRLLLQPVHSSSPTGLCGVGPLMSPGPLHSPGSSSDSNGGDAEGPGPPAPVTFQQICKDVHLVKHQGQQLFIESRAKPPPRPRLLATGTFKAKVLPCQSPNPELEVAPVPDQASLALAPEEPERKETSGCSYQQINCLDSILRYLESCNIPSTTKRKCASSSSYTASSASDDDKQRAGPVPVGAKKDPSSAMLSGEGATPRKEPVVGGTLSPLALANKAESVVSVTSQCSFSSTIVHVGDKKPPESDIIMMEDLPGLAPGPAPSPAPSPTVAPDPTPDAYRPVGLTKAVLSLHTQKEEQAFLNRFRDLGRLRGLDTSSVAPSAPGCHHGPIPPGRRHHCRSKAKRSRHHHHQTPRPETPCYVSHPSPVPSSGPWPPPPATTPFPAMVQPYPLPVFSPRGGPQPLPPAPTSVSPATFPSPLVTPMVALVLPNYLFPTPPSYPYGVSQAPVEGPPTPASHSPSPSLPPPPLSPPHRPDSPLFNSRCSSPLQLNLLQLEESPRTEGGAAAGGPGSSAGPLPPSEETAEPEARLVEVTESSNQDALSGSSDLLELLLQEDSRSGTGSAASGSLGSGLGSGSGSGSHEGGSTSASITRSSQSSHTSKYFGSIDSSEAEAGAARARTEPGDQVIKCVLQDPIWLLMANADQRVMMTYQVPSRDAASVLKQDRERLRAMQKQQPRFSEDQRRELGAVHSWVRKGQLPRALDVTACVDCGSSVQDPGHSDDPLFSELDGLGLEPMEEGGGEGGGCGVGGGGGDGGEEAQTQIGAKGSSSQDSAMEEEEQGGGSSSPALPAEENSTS
Sequence of CYC (Drosophila) (O61734 whole entry): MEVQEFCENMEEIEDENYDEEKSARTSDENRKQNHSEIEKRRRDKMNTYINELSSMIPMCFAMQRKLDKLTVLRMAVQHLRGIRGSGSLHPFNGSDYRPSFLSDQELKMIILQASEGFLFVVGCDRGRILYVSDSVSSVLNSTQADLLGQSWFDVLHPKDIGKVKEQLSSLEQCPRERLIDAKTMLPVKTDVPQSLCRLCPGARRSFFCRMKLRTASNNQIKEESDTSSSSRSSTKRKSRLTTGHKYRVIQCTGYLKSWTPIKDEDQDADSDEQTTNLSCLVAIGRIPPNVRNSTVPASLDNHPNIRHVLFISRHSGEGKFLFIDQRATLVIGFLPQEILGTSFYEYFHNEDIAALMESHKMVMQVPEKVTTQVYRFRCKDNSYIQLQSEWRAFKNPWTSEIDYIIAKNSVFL

transcriptional activation (vasopressin promoter luciferase reporter, NIH3T3 cells) (syrian hamster (sh)BMAL1) | transcriptional activity (per E box luciferase reporter, S2 cells) (syrian hamster (sh)BMAL1) | Molecule | also measured
 |  | dCLOCK (from UniProt O61735 1-1027) | transcriptional activity (per E box luciferase reporter, S2 cells) (CYC (Drosophila)): 265 fold
 |  | B1 | binding result (mPER1-HA): no binding
37 fold increase | 539 fold | human (h)MOP4 (other, UniProt Q99743 1-824, looked up) MDEDEKDRAKRASRNKSEKKRRDQFNVLIKELSSMLPGNTRKMDKTTVLEKVIGFLQKHNEVSAQTEICDIQQDWKPSFLSNEEFTQLMLEALDGFIIAVTTDGSIIYVSDSITPLLGHLPSDVMDQNLLNFLPEQEHSEVYKILSSHMLVTDSPSPEYLKSDSDLEFYCHLLRGSLNPKEFPTYEYIKFVGNFRSYNNVPSPSCNGFDNTLSRPCRVPLGKEVCFIATVRLATPQFLKEMCIVDEPLEEFTSRHSLEWKFLFLDHRAPPIIGYLPFEVLGTSGYDYYHIDDLELLARCHQHLMQFGKGKSCCYRFLTKGQQWIWLQTHYYITYHQWNSKPEFIVCTHSVVSYADVRVERRQELALEDPPSEALHSSALKDKGSSLEPRQHFNTLDVGASGLNTSHSPSASSRSSHKSSHTAMSEPTSTPTKLMAEASTPALPRSATLPQELPVPGLSQAATMPAPLPSPSSCDLTQQLLPQTVLQSTPAPMAQFSAQFSMFQTIKDQLEQRTRILQANIRWQQEELHKIQEQLCLVQDSNVQMFLQQPAVSLSFSSTQRPEAQQQLQQRSAAVTQPQLGAGPQLPGQISSAQVTSQHLLRESSVISTQGPKPMRSSQLMQSSGRSGSSLVSPFSSATAALPPSLNLTTPASTSQDASQCQPSPDFSHDRQLRLLLSQPIQPMMPGSCDARQPSEVSRTGRQVKYAQSQTVFQNPDAHPANSSSAPMPVLLMGQAVLHPSFPASQPSPLQPAQARQQPPQHYLQVQAPTSLHSEQQDSLLLSTYSQQPGTLGYPQPPPAQPQPLRPPRRVSSLSESSGLQQPPR | 
 |  | mPER3-HA (other, mouse, UniProt O70361 1-1113, looked up, not shown: small tags and cut ends, Expressed in COS7 cells from pcDNA 3.1; immunoprecipitated with anti-HA antibody) MDPCGDPAVPGGDCPQTRGPGLQGASGQEGPLQGTCVDSSHSEHEDRNRMSEELIMVVQEMKKYFPAERHTKPSTLDALNYALRCVHSVQANSDFFQSLGPRGAHQADVTVYSLEDLTALASEHTSKNTDTFAAVFSFLSGRLVHISEQAALILNSKRGFLKSVHFVDLLAPQDVRAFYAHTAPTQLPFWNNWTQRASQYECAPAKPFFCRICGGGDREKRHYSPFRILPYLVHVHSSAQPEPEPCCLTLVEKIHSGYEAPRIPVDKRIFTTTHTPGCVFLEVDERAVPLLGYLPQDLIGTSILTYLHPEDRPLMVAIHQKVLKYAGHPPFEHSPVRFCTQNGEYVILDSSWSSFVNPWSRKVSFIIGRHKVRTSPLNEDVFATRIKKAASNDKDIAELQEQIHKLLLQPVHASASSGYGSLGSSGSQEQHVSITSSSESSGHCPEEGQHEQMTLQQVYASVNKIKNVGQQLYIESMARSSVKPVAETCVEPQGGDEQKDFSSSQTLKNKSTTDTGSGGNLQQEQPSSSYQQMNCIDSVIRYLTSYSLPALKRKCISCTNTSSSSEEAKPIPEVDSSQRDTEQLLDIRKQETTGPSTDIEGGAARTLSTAALSVASGISQCSCSSTSGHAPPLQSESVAVACKPWALRTKASHLAAGGFKHVGLTAAVLSAHTQKEEQNYVDRFREKILTSPYGCYLQQESRNRAQYSCVQAGSTAKHSRCAGSERQKHKRKKLPAPVDTSSPGAHLCPHVTGLLPDEQHWGPSASPSPLGAGLAFPSALVVPSQTPYLLPSFPLQDMASQGVGVSAAWGAAAGCPPLSAGPQAVAAFPSAYVDTLMTIFLHNAPLFPLWPPSFSPYPSLGAAGSSELAPLVPAMAPNPEPTTSGHSQRRVEENWEAHSEELPFISSRSSSPLQLNLLQEEMPAPSESADAVRRGAGPDAKHHCVTGPSGSRSRHCTSGELATATAQQESAAASGSSASSIYFSSTDYASEVSENRQRPQDRQRDEALPGAAEESIWRMIERTPECVLMTYQVPERGREEVLKQDLEKLQSMEQQQPLFSPAQREELAKVRSWIHSHTAPQEGHLQSCVACEDRGSVGDTAEVLEQHPAEDTS | binding result (mTIM-V5): no binding
10 fold increase | 1740 fold | mCLOCK (other, mouse, UniProt O08785 1-855, looked up) MVFTVSCSKMSSIVDRDDSSIFDGLVEEDDKDKAKRVSRNKSEKKRRDQFNVLIKELGSMLPGNARKMDKSTVLQKSIDFLRKHKETTAQSDASEIRQDWKPTFLSNEEFTQLMLEALDGFFLAIMTDGSIIYVSESVTSLLEHLPSDLVDQSIFNFIPEGEHSEVYKILSTHLLESDSLTPEYLKSKNQLEFCCHMLRGTIDPKEPSTYEYVRFIGNFKSLTSVSTSTHNGFEGTIQRTHRPSYEDRVCFVATVRLATPQFIKEMCTVEEPNEEFTSRHSLEWKFLFLDHRAPPIIGYLPFEVLGTSGYDYYHVDDLENLAKCHEHLMQYGKGKSCYYRFLTKGQQWIWLQTHYYITYHQWNSRPEFIVCTHTVVSYAEVRAERRRELGIEESLPETAADKSQDSGSDNRINTVSLKEALERFDHSPTPSASSRSSRKSSHTAVSDPSSTPTKIPTDTSTPPRQHLPAHEKMTQRRSSFSSQSINSQSVGPSLTQPAMSQAANLPIPQGMSQFQFSAQLGAMQHLKDQLEQRTRMIEANIHRQQEELRKIQEQLQMVHGQGLQMFLQQSNPGLNFGSVQLSSGNSNIQQLTPVNMQGQVVPANQVQSGHISTGQHMIQQQTLQSTSTQQSQQSVMSGHSQQTSLPSQTPSTLTAPLYNTMVISQPAAGSMVQIPSSMPQNSTQSATVTTFTQDRQIRFSQGQQLVTKLVTAPVACGAVMVPSTMLMGQVVTAYPTFATQQQQAQTLSVTQQQQQQQQQPPQQQQQQQQSSQEQQLPSVQQPAQAQLGQPPQQFLQTSRLLHGNPSTQLILSAAFPLQQSTFPPSHHQQHQPQQQQQLPRHRTDSLTDPSKVQPQ | 

From patent publication US6475744 (GENERAL HOSPITAL CORPORATION A MASSACHUSETTS, dated 2002)
